Target: X. laevis FcRγ subunit, c-myc-tagged (X. laevis)

Q: With “XFL1.7-HA with its own TM1 region (X. laevis XFL1.7, extracellular plus transmembrane part) (domain or fragment)” as the substance, how does the surface expression of XFL1.7-HA on transiently transfected 293T cells (anti-HA surface staining, flow cytometry), alone against co-transfected with FcRγ read?
A: 2 fold

Source: PMC2413239
